Data set [1] concerns healthy Balb/c mice. Put plainly: Toxicity study, hematology (same groups as A3). The data set is classed as in vivo, mouse. To be noted: control group 2, 5, 11, 19, 30, 43 wk, mean±SD. The protocol:
(§1) Five different experimental groups (10 male and 10 female healthy animals per group; n = 100) were included in the radiotoxicity study and treated as follows: control group 1: 3 × vehicle (PBS + kolliphor HS 15 (1 mg/mL)); control group 2: 3 × 1200 pmol [^175Lu]Lu-NeoB; treatment group 1: 3 × 40 MBq/400 pmol [^177Lu]Lu-NeoB; treatment group 2: 3 × 80 MBq/800 pmol [^177Lu]Lu-NeoB; and treatment group 3: 3 × 120 MBq/1200 pmol [^177Lu]Lu-NeoB.
(§2) Animals received 3 injections with an interval of 7 days between each injection.
Throughout the study, the animals were observed daily to check for physical signs of toxicity and signs of discomfort, and animals were weighed 2–3 times per week. Furthermore, at week -1, 5, 11, 19, 30, and 43, blood samples were collected by submandibular puncture from all animals that were in the study at that time point. All blood samples were analyzed for hematological parameters (hematocrit; hemoglobin; red blood cell count; white blood cell count; hemoglobin; mean cell hemoglobin concentration; mean cell volume; platelet count) on the scilVet abc + counter (Covetrus).

Data set [2] deals with healthy Balb/c mice. The data set is described as follows: Toxicity study, clinical chemistry. In kind it is in vivo, mouse. The following applies: control group 2, 5, 11, 19, 30, 43 wk, mean±SD. How it is done: as §1, §2
In addition, the following clinical chemistry parameters were measured: sodium, potassium chloride, calcium, glucose, creatinine, urea, alanine aminotransferase (ALT), aspartate aminotransferase (AST), alkaline phosphatase (ALP), amylase, lipase, and cholesterol, using the Roche/Hitachi cobas c systems according to the standard protocol. To reach the volume necessary for measuring the clinical chemistry parameters, the blood plasma was diluted 3–5 times with demineralized water.

In data set [3] the test system is healthy Balb/c mice. The data set is described as follows: Toxicity study, histopathology (5-point grade); 3 i.v. injections at 7-day interval; control group 2 = 3× 1200 pmol [175Lu]Lu-NeoB; treatment groups 1/2/3 = 3× 40 MBq/400 pmol, 80 MBq/800 pmol, 120 MBq/1200 pmol [177Lu]Lu-NeoB. In kind it is in vivo, mouse. How it is done:
as §1, §2
At 5, 19, and 43 weeks after the first injection, 3–4 male and 3–4 female animals of each group were sacrificed by isoflurane overdose after a blood sample was taken by retro-orbital puncture. Hereafter, the axillary lymph nodes, mesenteric lymph nodes, skin, mammary fat pad, sternum, pancreas, adrenal glands, kidneys, spleen, liver, gallbladder, stomach, duodenum, jejunum, ileum, caecum, colon, rectum, testes (M), epididymis (M), seminal vesicles (M), prostate gland (M), ovaries (F), oviducts (F), uterus-cervix (F), vagina (F), bladder, ureters, sciatic nerve, skeletal muscle, femur, lungs, trachea, esophagus, thymus, thyroid gland, aorta, heart, brain, pituitary gland, eyes, harderian glands, tongue, spinal column, and the tail were collected and analyzed macroscopically. All organs and tissues were formalin fixed (4% buffered formaldehyde) and shipped to the European Research Biology Centre (ERBC, Pomezia, Rome, Italy) where histological sampling, embedding, sectioning (5 µm thick), and hematoxylin–eosin staining were performed according to standard guidelines. All organs and tissues were analyzed microscopically by an experienced pathologist. A 5-point grading scale was used: 1: minimal change, 2: mild change, 3: moderate change, 4: marked change, 5: severe change.

In another data set the test system is patients. The following applies: human, in vivo; cited from earlier work. The text has this: Due to the very small size of murine kidneys and the long range of β^− particles, the murine kidneys receive a more homogeneous radiation dose compared to the much larger human kidneys. […] These ... || Bone marrow toxicity is a concern when using targeted radionuclide therapy with, for example, lutetium-177 labeled peptides with a long circulation time. Here, we found a decrease in WBC counts 5 weeks after radioligand injection in treatment group 3, which received bone marrow doses between 0.20 and 0.36 Gy. Although not clear from our histopathological analysis, this finding could potentially indicate bone marrow suppression. However, it should also be noted that the brief drop in WBC counts may have (partly) been caused by the reported urinary bladder inflammation. The observed ...

Setting [4] is: female wk 43, control group 2, grade 1.
Setting [5] is: female wk 43, control group 2, grade 2.
Setting [6] is: male wk 5, control group 2, grade 1.
The mark [7] stands for this setting: male wk 5, control group 2, grade 2.
[8] abbreviates: male wk 19, control group 2, grade 1.
Setting [9] is: male wk 43, control group 2, grade 1.
The mark [10] stands for this setting: male wk 43, control group 2, grade 2.

Where “and” joins values, the source holds several entries; their conditions need not be identical. Identical values can stand only once.

We go through two compounds from publication PMC9605926, “Safety of [^177Lu]Lu-NeoB treatment: a preclinical study characterizing absorbed dose and acute, early, and late organ toxicity” (European Journal of Nuclear Medicine and Molecular Imaging, 2022).

Turning to `CC(C)CC(CC(C)C)NC(=O)[C@H](Cc1cnc[nH]1)NC(=O)CNC(=O)[C@@H](NC(=O)[C@H](C)NC(=O)[C@H](Cc1c[nH]c2ccccc12)NC(=O)[C@H](CCC(N)=O)NC(=O)[C@@H](Cc1ccccc1)NC(=O)COCC(=O)Nc1ccc(CNC(=O)CN2CCN(CC(=O)O)CCN(CC(=O)O)CCN(CC(=O)O)CC2)cc1)C(C)C` [[^175Lu]Lu-NeoB], the WBC in the data set with healthy Balb/c mice [1] (female) was 7.27 ± 1.51 103/mm3 and 8.51 ± 2.34 103/mm3 and 6.74 ± 3.19 103/mm3 and 10.38 ± 2.86 103/mm3 and 7.40 ± 0.72 103/mm3; with healthy Balb/c mice [1] (male), 7.67 ± 1.50 103/mm3 and 8.37 ± 2.67 103/mm3 and 9.53 ± 2.84 103/mm3 and 9.80 ± 2.25 103/mm3 and 6.70 ± 2.71 103/mm3. Besides, the “Alk. Phosphatase” value with healthy Balb/c mice [2] (female) is 100.20 ± 6.96 U/L and 84.43 ± 7.63 U/L and 73.57 ± 9.88 U/L and 86.25 ± 8.54 U/L and 71.25 ± 14.93 U/L; in the data set on healthy Balb/c mice [2] (male), 117.70 ± 8.30 U/L and 100.29 ± 7.72 U/L and 62.50 ± 6.45 U/L and 80.00 ± 7.07 U/L and 67.50 ± 2.89 U/L. The Urea is 7.83 ± 0.88 mmol/L and 7.07 ± 1.19 mmol/L and 6.14 ± 0.38 mmol/L and 7.00 ± 0.00 mmol/L and 6.17 ± 0.76 mmol/L in the data set on healthy Balb/c mice [2] (female); 7.17 ± 0.64 mmol/L and 5.61 ± 0.86 mmol/L and 5.75 ± 0.65 mmol/L and 6.75 ± 1.55 mmol/L and 8.00 ± 2.12 mmol/L in the data set with healthy Balb/c mice [2] (male). Moreover, the Treatment-related toxicological effects entry with healthy Balb/c mice [3] (control group 2, 3× 1200 pmol, male and female) is “did not show any treatment-related toxicological effects”. Further, the “Adrenal glands subcapsular cell hyperplasia, incidence” value in the data set on healthy Balb/c mice [3] (female wk 5, control group 2, grade 1) is reported as 2/3; with healthy Balb/c mice [3] (female wk 19, control group 2, grade 1), 1/3; with healthy Balb/c mice [3] (female wk 19, control group 2, grade 2) it was 2/3; in the data set on healthy Balb/c mice [3] (setting [4]), 1/4; in the data set with healthy Balb/c mice [3] (setting [5]), 2/4; with healthy Balb/c mice [3] (setting [6]), 1/3. In addition, the “Adrenal glands subcapsular cell hyperplasia, incidence” value was 1/3 in the data set on healthy Balb/c mice [3] (setting [7]), 2/3 in the data set on healthy Balb/c mice [3] (setting [8]), 3/4 in the data set with healthy Balb/c mice [3] (setting [9]) and 1/4 in the data set on healthy Balb/c mice [3] (setting [10]). In the data set on healthy Balb/c mice [3] (female wk 5, control group 2, grade 3), the “Brain artifacts, incidence” value is recorded as 1/3. Also, the “Liver inflammatory cell foci, incidence” value in the data set with healthy Balb/c mice [3] (setting [4]) is on record as 1/4. Besides, the entries for the “Pancreas inflammatory cell foci, incidence” value in the data set with healthy Balb/c mice [3] (setting [5]), in the data set on healthy Balb/c mice [3] (setting [8]) and in the data set with healthy Balb/c mice [3] (setting [10]) were 1/4, 1/3 and 1/4, respectively. The “Uterus endometrial hyperplasia, incidence” value in the data set with healthy Balb/c mice [3] (female wk 43, control group 2, grade 4) is listed as 1/4. In addition, the “Adrenal glands accessory cortical tissue, incidence” value in the data set with healthy Balb/c mice [3] (setting [6]) is recorded as 1/3. For the same compound, the “Spleen extramedullary haematopoiesis, incidence” value in the data set on healthy Balb/c mice [3] (setting [7]) is 1/3. For the same compound, the “Urinary bladder proteinaceous plug, incidence” value in the data set with healthy Balb/c mice [3] (male wk 19, control group 2, grade 2) is 1/3. Besides, the “Kidneys inflammatory cell foci, incidence” value in the data set on healthy Balb/c mice [3] (setting [9]) is on record as 1/4. For the same compound, in the data set with healthy Balb/c mice [3] (setting [9]), the “Testes germ cell depletion, incidence” value is listed as 1/4. In addition, the “Kidneys cyst/s, incidence” value in the data set with healthy Balb/c mice [3] (male wk 43, control group 2, grade 3) is given as 1/4.

Take [^177Lu]Lu-DOTATATE: in the data set with patients, the “Average absorbed bone marrow dose” value was 2 Gy; the “Average kidney dose in patients” value was 20.1 ± 4.9 Gy; the “Minimal to mild nephrotoxicity, cases” value is reported as 6/79.
